Source: paper PMC5253704

Tests used:
Assay in all cases: ELISA; one protein (25 nM) or two proteins together (12.5 nM each) coated on wells 16 h at 4 °C in buffer A (20 mM Tris-HCl, 150 mM NaCl, 1 mM ZnCl2, 1 mM CaCl2, 1 mM MgCl2, pH 7.4); soluble protein at 50 to 0.78 nM; detected with antibody and HRP secondary; calculated KD
[1] = target: recombinant murine α3(V)-NTD (N-terminal non-triple helical domain of the α3(V) collagen chain) (murine)
[2] = target: GPC1+FGF2 combined (co-adsorbed on the well) (UniProt P35052)
[3] = target: recombinant glypican-1 (R&D Systems) (UniProt P35052)
recombinant FGF2 = recombinant FGF2 (UniProt P09038)

Chain of recombinant FGF2 (P09038 143-288): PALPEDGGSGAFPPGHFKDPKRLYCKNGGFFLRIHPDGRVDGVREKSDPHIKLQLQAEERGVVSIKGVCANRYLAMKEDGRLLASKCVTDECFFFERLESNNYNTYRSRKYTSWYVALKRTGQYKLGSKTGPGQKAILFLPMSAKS

Kd [1] [nM]	Kd [2] [nM]	Kd [3] [nM]	Kd (recombinant FGF2) [nM]	Substance
36				recombinant FGF2 (from UniProt P09038 143-288) (ligand)
34				recombinant glypican-1 (R&D Systems) (from UniProt P35052 24-530) (natural protein)
	16	33	35	recombinant murine α3(V)-NTD (N-terminal non-triple helical domain of the α3(V) collagen chain) (domain or fragment)
